Laboratory results: publication PMC11261467

What was measured:
Assay in all cases: SPR
[1] = target: plasma-derived C4b (unfractionated) (human) (UniProt P0C0L4)
[2] = target: plasma-derived C3b (unfractionated) (human) (UniProt P01024)
[3] = target: His-tagged CSL040/LHR-ABC (human) (UniProt P17927)

Substance	Kd [1] [nM]	Kd [2] [nM]	Kd [3] [nM]
LHR-B (soluble human CR1 truncation), untagged (from UniProt P17927 490-939) (domain or fragment)	1910	337	–
plasma-derived C3b (unfractionated) (from UniProt P01024 749-1663; P01024 749-1663) (ligand)	–	–	134
plasma-derived C3b dimer (purified by size-exclusion chromatography) (from UniProt P01024 749-1663; P01024 749-1663) (complex)	–	–	3.8

Results, then the substance that gave them:

Kd [1] [nM]	Kd [2] [nM]	Kd [3] [nM]	Substance
1230	–	–	LHR-A (soluble human CR1 truncation), untagged (from UniProt P17927 42-489) (domain or fragment)
1540	–	–	LHR-AA (soluble human CR1 variant with two tandem LHR-A domains), untagged (from UniProt P17927 42-489; P17927 42-489)
530	305	–	LHR-AB (soluble human CR1 truncation), untagged (from UniProt P17927 42-939) (domain or fragment)
581	78.2	–	LHR-BC (soluble human CR1 truncation), untagged (from UniProt P17927 490-1392) (domain or fragment)
